Tests used:
CD70 ECD = biological target: T1, CD70 ECD (Homo sapiens, UniProt P32970); assay: Biacore affinity measurement on immobilized CD70 ECD; type: binding
T1 sequence (P32970 39-193 limits assumed): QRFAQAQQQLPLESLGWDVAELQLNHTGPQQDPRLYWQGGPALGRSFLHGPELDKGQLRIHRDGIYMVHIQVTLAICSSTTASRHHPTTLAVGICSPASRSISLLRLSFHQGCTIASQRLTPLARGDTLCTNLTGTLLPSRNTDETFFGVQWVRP
Protocol: The immobilization of antigen CD70 ECD was performed at 25° C. with HBS-EP as the running buffer. Sensor chip surface of flow cells 1, 4 were activated by freshly mixed 50 mmol/L N-Hydroxy succinimide (NHS) and 200 mmol/L 1-ethyl-3-(3-dimethylaminopropyl) carbodiimide hydrochloride (EDC) for 420s (10 μL/min). Afterwards, CD70 antigen diluted in 10 mmol/L NaAC (pH 4.5) was injected into flow cell 4 to achieve conjugation of the appropriate Response Unit, while flow cell 1 was set as a blank. After the amine coupling reaction, the remaining active coupling sites on chip surface were blocked by 420s injection of 1 mol/L ethanolamine hydrochloride.
The assay was performed at 25° C. and the running buffer was HBS-EP. Diluted antibodies were injected over the surface of flow cells 1 and 4 during the association phase, followed by injecting running buffer as the dissociation phase. All the data were processed using Biacore T200 Evaluation software version 3.1. Flow cell 1 and a blank injection of buffer in each cycle were used as a double reference for Response Units subtraction. Kinetic data of the interaction between the antibodies and CD70 antigen were obtained through affinity measurement.

[1] = tested on: 786-O, Caki-1, U251 and DBTRG-05MG cells; assay: Antibody binding by flow cytometry, statements across all four tumor cell lines; set-up: species or system human; conditions: range over the four cell lines
Protocol: The lead antibodies were tested for binding to renal carcinoma cells and glioblastoma cells expressing CD70 on the cell surface by flow cytometry. Cell lines 786-O (ATCC® CRL-1932™, provided by COBIOER), Caki-1 (ATCC® HTB-46™, provided by COBIOER), U251 and DBTRG-05MG (ATCC® CRL-2020™, provided by COBIOER) were each tested for antibody binding. 786-O cells were cultured with RPMI 1640 medium (Gibco, Cat #11875093) containing of 10% FBS (Gibco, Cat #10099141) while Caki-1 cells were cultured with McCoy's 5a Modified medium (Gibco, Cat #16600082) containing 10% FBS. U251 cells were cultured with MEM medium containing of 10% FBS and 1% NEAA+1 mM sodium pyruvate. DBTRG-05MG cells were cultured with DMEM medium (Gibco, Cat #C11995500BT) containing of 10% FBS. Each of the lead antibodies and the controls were incubated for 30 mins with the different cell lines (3×10^5 cells per well) in 0.2 ml FACS buffer (1×PBS with 0.1% BSA) at 4° C. Then, the cells were pelleted, washed, and incubated at 4° C. for 30 mins with 100 μl of 1:200 diluted PE-conjugated anti human Fc (Abcam, Ab98596) in FACS buffer. The cells were pelleted again, washed with PBS, resuspended in FACS buffer and analyzed by flow cytometer (Beckman, CytoFLEX).

786-O cells = assay: Internalization by FACS immune-fluorescence staining, 786-O; type: cell-based, human
Protocol: (§1) Briefly, 2×10^5 cells were harvested from a tissue culture flask by treatment with 0.25% Trypsin/EDTA and then incubated with 10 μg/ml of the lead antibodies or control antibodies in FACS buffer (1×PBS with 0.1% BSA) for 30 mins at 4° C. The cells were washed at 4° C. to remove unbound antibodies and kept on ice or shifted to 37° C. At the set time points (0 h, 4 h, 24 h), cells were incubated with PE-conjugated anti human Fc (Abcam, Ab98596) for 30 mins at 4° C. and then analyzed by flow cytometry. The internalization ratio was calculated by subtracting the 37° C. MFI from the 4° C. MFI, and then compared with 4° C. MFI.
(§2) Four cell lines ([…]), Caki-1, Raji, MCF-7) were utilized in the internalization assay. Target (CD70) copy numbers were determined via the QIFIKIT (DAKO, K0078). Briefly, cells were labeled with a primary mouse monoclonal antibody against CD70. Cells, Set-up beads, Calibration beads (from the kit) were then labeled in parallel with a fluorescein-conjugated anti-mouse secondary antibody. The fluorescence is correlated with the number of bound primary antibody molecules on the cells and on the beads. Samples were subsequently analyzed on the flow cytometer and copy number determined based on the calibration curve (Table 11). For internalization assay, 3×10^5 cells were incubated at 4° C. for 30 min with 10 µg/ml 2E7 in FACS buffer (1×PBS containing 0.1% BSA). Cells were washed at 4° C. to remove unbound material and kept on ice or shifted to 37° C. for different lengths of time. At progressive timepoints ([…], 0.5, 1, 2, 3, 4 hr) cells were stained with PE-conjugated anti-human Fc for 30 min at 4° C. and analyzed by flow cytometry. Internalization rate were calculated by subtracting the mean fluorescence intensity (MFI) of cell surface-bound antibody at 37° C. at each time point from the MFI of cell surface-bound antibody at 4° C. at time 0, then divided by the MFI of the cell surface-bound antibody at 4° C. at time 0.

Caki-1 cells = assay: Internalization by FACS immune-fluorescence staining, Caki-1; type: cell-based, human
Protocol: as §1, §2

cyno CD70 ECD = assay: Biolayer interferometry (BLI), cyno CD70; type: binding
Raji cells = assay: Internalization time course, Raji; type: cell-based, human; conditions: up to 4 hr, FIG. 13
Protocol: as §2

2E7 rat PK = type: in vivo, Sprague Dawley rats; conditions: intravenous infusion, 3 mg/kg, FIG. 14
Protocol: 2E7 was administered via intravenous infusion at 3 mg/kg to male Sprague Dawley rats (n=3 per group). Orbital blood was sampled from each rat at various time points post dosing. Circulating concentrations of 2E7 were analyzed by an ELISA assay (ProfoundBio) and calculated using the GraphPad Prism 6 software.

affinity to CD70 antigen, fold greater than the reference antibody h1F6 (CD70 ECD): 2-3 fold
Rmax (RU) (CD70 ECD; 25° C., CD70 immobilized): 32.94 RU
ka (CD70 ECD; 25° C., CD70 immobilized): 75400 M⁻¹ s⁻¹
kd (CD70 ECD; 25° C., CD70 immobilized): 0.00106 s⁻¹
EC50 relative to that of antibody 69A7 [1]: 1.8˜3.5 times
B1: 2E7: anti-CD70 antibody clone, VH SEQ 7 and VL SEQ 8; tested as scFv and full human IgG1/kappa (antibody, V domains shown)
VH: QVQLQESGPGLVKPSETLSLTCTVSGGSVSSDYYYWSWIRQPPGKGLEWLGYIYYSGSTNYNPSLKSRVTISVDTSKNQFSLKLRSVTTADTAVYYCARGDGDFLGVCFDYWGQGTLVTVSS
VL: EIVLTQSPATLSLSPGERATLSCRASQSVSSYLAWYQQKPGQAPRLLIFDASNRATGIPARFSGSGSGTDFTLTISSLEPEDFAVYYCQQRSNWPLTFGGGTKVEIK
modifications: Synthetic 2E7 VH amino acid sequence; Synthetic 2E7 VL amino acid sequence
notes: tested as scFv and full human IgG1/kappa
absolute amount of antibody internalized into cell vs parent antibody 69A7 (786-O cells; based on the cell binding affinity): higher absolute amount of antibody internalized into cell than the parent antibody 69A7
internalization, time course (786-O cells; up to 4 hr, FIG. 13): rapid internalization
absolute amount of antibody internalized into cell vs parent antibody 69A7 (Caki-1 cells; Caki-1, based on the cell binding affinity): higher absolute amount of antibody internalized into cell than the parent antibody 69A7
internalization, time course (Caki-1 cells; Caki-1, up to 4 hr, FIG. 13): rapid internalization
Response (cyno CD70 ECD; CYNO CD70 3.13 nM): 0.1275
Response (cyno CD70 ECD; CYNO CD70 6.25 nM): 0.204
Response (cyno CD70 ECD; CYNO CD70 12.5 nM): 0.2927
Response (cyno CD70 ECD; CYNO CD70 25 nM): 0.3702
Response (cyno CD70 ECD; CYNO CD70 50 nM): 0.4136
Response (cyno CD70 ECD; CYNO CD70 100 nM): 0.4825
Response (cyno CD70 ECD; CYNO CD70 200 nM): 0.4991
ka (cyno CD70 ECD; CYNO CD70, multiple dilutions 200-3.13 nM, global fit): 617800 M⁻¹ s⁻¹
internalization, time course (Raji cells): rapid internalization
plasma PK (2E7 rat PK): stable plasma PK in rat that is characteristic of IgG1 antibodies

Source: US20250066490A1, “ANTI-CD70 ANTIBODIES, CONJUGATES THEREOF AND METHODS OF USING THE SAME” (ProfoundBio US Co., priority 2021, published 2025)
